Measured values reported in patent US6207419A, “Thrombin inhibitory agents and methods of using same” (The University of North Carolina at Chapel Hill, priority 1999, dated 2001).

Tested on: thrombin
Assay: Plasma-based thrombin inhibition assay
Assay type: biochemical, human
Conditions: for Inhibition Rate k2 × 10^8 (M^-1 min^-1), thrombin in plasma: 10 nM serpin
Protocol: The assay to evaluate rHCII (wt and rHCII-CHis6) in plasma was designed based on previously published methods (Tollefsen, D. M., and Pestka, C. A. (1985) Blood 66(4), 769-774; Griffith, M. J., Carraway, T., White, G. C., and Dombrose, F. A. (1983) Blood 61(1), 111-118). All assays were performed at room temperature in 96-well microtiter plates previously coated with 2 mg/mL BSA. This assay was performed using normal hemostasis reference plasma (REF), human antithrombin III-deficient plasma (DEF), or a 50:50 mixture of these plasmas (REF/DEF). Within the assay, 10 nM rHCII or rHCII-CHis6 was incubated for 15 sec with I nM thrombin and 1 μg/mL heparin or 50 μg/mL dermatan sulfate, in the presence of a 1:100 dilution of plasma. Residual thrombin activity was measured with 300 μM GPA and 2 mg/mL pB. Substrate cleavage was measured by color development at […] on a Vmax Kinetic Microplate Reader. Second order rate constants were measured at least in triplicate on two recombinant protein preparations as described in Example 4.

B1: rHCII-CHis6: Recombinant HCII with six histidine residues added at the carboxyl terminus; SEQ ID NO:5 (protein)
chain: MKHSLNALLIFLIITSAWGGSKGPLDQLEKGGETAQSADPQWEQLNNKNLSMPLLPADFHKENTVTNDWIPEGEEDDDYLDLEKIFSEDDDYIDIVDSLSVSPTDSDVSAGNILQLFHGKSRIQRLNILNAKFAFNLYRVLKDQVNTFDNIFIAPVGISTAMGMISLGLKGETHEQVHSILHFKDFVNASSKYEITTIHNLFRKLTHRLFRRNFGYTLRSVNDLYIQKQFPILLDFRTKVREYYFAEAQIADFSDPAFISKTNNHIMKLTKGLIKDALENIDPATQMMILNCIYFKGSWVNKFPVEMTHNHNFRLNEREVVKVSMMQTKGNFLAANDQELDCDILQLEYVGGISMLIVVPHKMSGMKTLEAQLTPRVVERWQKSMTNRTREVLLPKFKLEKNYNLVESLKLMGIRMLFDKNGNMAGISDQRIAIDLFKHQGTITVNEEGTQATTVTTVGFMPLSTQVRFTVDRPFLFLIYEHRTSCLLFMGRVANPSRSHHHHHH
modifications: C-terminal His6 tag
increase of thrombin inhibition rate compared to wt-rHCII (50 μg/mL dermatan sulfate, each of the plasma conditions): 1.2-1.3 fold
increase of thrombin inhibition rate compared to wt-rHCII (50:50 mixture of REF/DEF, 1 μg/mL heparin): 1.5 fold
increase of thrombin inhibition rate compared to wt-rHCII (DEF plasma, 1 μg/mL heparin): 4.6 fold
Inhibition Rate k2 × 10^8 (M^-1 min^-1), thrombin in plasma (Dermatan Sulfate (50 μg/mL), 50:50 Mixture (REF/DEF) plasma 1:100): 7.0 × 10^8 (M^-1 min^-1)
Inhibition Rate k2 × 10^8 (M^-1 min^-1), thrombin in plasma (Dermatan Sulfate (50 μg/mL), ATIII Deficient (DEF) plasma 1:100): 7.5 × 10^8 (M^-1 min^-1)
Inhibition Rate k2 × 10^8 (M^-1 min^-1), thrombin in plasma (Dermatan Sulfate (50 μg/mL), Normal Reference (REF) plasma 1:100): 7.2 × 10^8 (M^-1 min^-1)
Inhibition Rate k2 × 10^8 (M^-1 min^-1), thrombin in plasma (Heparin (1 μg/mL), 50:50 Mixture (REF/DEF) plasma 1:100): 2.8 ± .18 × 10^8 (M^-1 min^-1)
Inhibition Rate k2 × 10^8 (M^-1 min^-1), thrombin in plasma (Heparin (1 μg/mL), ATIII Deficient (DEF) plasma 1:100): 1.2 ± .10 × 10^8 (M^-1 min^-1)
Inhibition Rate k2 × 10^8 (M^-1 min^-1), thrombin in plasma (Heparin (1 μg/mL), Normal Reference (REF) plasma 1:100): 3.3 ± .37 × 10^8 (M^-1 min^-1)
increase of thrombin inhibition rate compared to wt-rHCII (REF plasma, 1 μg/mL heparin): 1.5 fold
